The source of these data is publication PMC10691555.

Assay [1] deals with recombinant Her2, biotinylated (UniProt P04626). The assay can be described thus: SPR. On the technique in general: Surface plasmon resonance follows binding to a sensor surface in real time, without labels.
Assay [2] has the same target. The assay can be described thus: plate binding titration of dye-labelled affibody.
Assay [3] deals with Her2 on SK-BR-3 cells (human (endogenous in SK-BR-3)) (UniProt P04626). Put plainly: flow cytometry on cells. (Flow cytometry measures light scatter and fluorescence of single cells or particles in a stream.)

On to “Her2-specific affibody ZHer2:2891 conjugated with AlexaFluor 488nm dye (designed binder)”, for which the figures for the Kd in assay [1], in assay [2] and in assay [3] were 0.115 nM, 11 nM and 7.12 nM, respectively.

Usually Kd stands for the constant that tells how readily two partners part at equilibrium.
